According to US20240229045, “APTAMER FOR SPECIFICALLY RECOGNIZING SOLUBLE ST2 PROTEIN AND APPLICATION OF THE SAME” (BEIJING INSTITUTE OF HEART, LUNG AND BLOOD VESSEL DISEASES, published 2024):

B1: Apt4 (ssDNA)
DNA: TCCATCCACTCGGGGCGGGGGCTCGTGCTCTATTTC
B2: Apt1 (ssDNA)
DNA: TCCATCCACTCGGGGCTAGAAGCCGTGAGAATCTG
B3: Apt2 (ssDNA)
DNA: TCCATCCACTCGGGCCCTAGGGCGTGTATGTCCAT
B4: Apt3 (ssDNA)
DNA: TCCATCCACTCGGCCTACTAAGGGTTTCGTTCACC
B5: Apt8 (ssDNA)
DNA: TCCATCCACTCGGCGCCACGCGGTTTCTCCAGATT

Experiments:
[1] = molecular target: T1, soluble ST2 (sST2, IL1RL1 soluble isoform) (Homo sapiens, UniProt Q01638-2 Q01638-2:19-328); test: fiber-optic fluorescence, sST2 immobilised; 137 mM NaCl, 2.7 mM KCl, phosphate
T1 sequence (Q01638 other isoform, or with tags, fused parts or gaps): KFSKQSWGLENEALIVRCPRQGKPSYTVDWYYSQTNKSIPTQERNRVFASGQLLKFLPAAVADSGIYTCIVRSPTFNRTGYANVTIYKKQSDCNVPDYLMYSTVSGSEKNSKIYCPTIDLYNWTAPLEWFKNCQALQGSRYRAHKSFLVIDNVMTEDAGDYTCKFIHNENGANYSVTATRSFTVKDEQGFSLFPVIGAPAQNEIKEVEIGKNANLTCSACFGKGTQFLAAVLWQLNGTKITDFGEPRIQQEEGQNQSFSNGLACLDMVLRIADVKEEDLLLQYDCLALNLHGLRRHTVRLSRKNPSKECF

[2] = molecular target: T1, soluble ST2 (sST2, IL1RL1 soluble …); test: EMSA; strong binding; room temperature 30 min
Protocol: According to the experimental formula shown in Table 4, the aptamer was added to the buffer solution and nuclease-free water, heated at 95° C. for 10 minutes, quenched on ice for 10 minutes, and room temperature for 10 minutes.
The above DNA solution and sST2 protein were slowly mixed to a final volume of 20 μL, and a sample containing only aptamer and no protein was used as a negative control, and incubated with rotation at room temperature for 30 minutes.

Row | Binder | Kd [1] [nM] | binding result [2]
1 | B1 | 127 | 
2 | B2 |  | binds
3 | B3 |  | binds
4 | B4 |  | binds
5 | B5 |  | binds
